In article PMC4225172:

What was measured:
[1] = target: BoLA-T2C heavy chain folded with recombinant human β2m (cattle (Bos taurus×Bos indicus) | human) (UniProt P61769); experiment: AlphaScreen or HTRF
[2] = target: BoLA-3*00201 (JSP.1) heavy chain folded with recombinant human β2m (cattle (Holstein) | human) (UniProt P61769); experiment: AlphaScreen or HTRF
[3] = target: BoLA-3*00201 (JSP.1) heavy chain folded with 125I-radiolabeled bovine met-β2m (cattle (Holstein) | bovine) (UniProt P01888); experiment: scintillation proximity assay
[4] = target: BoLA-3*00101 (AW10) heavy chain folded with 125I-radiolabeled bovine met-β2m (cattle (Boran) | bovine) (UniProt P01888); experiment: scintillation proximity assay
[5] = target: BoLA-1*02301 (D18.4) heavy chain folded with 125I-radiolabeled bovine met-β2m (cattle (Holstein) | bovine) (UniProt P01888); experiment: scintillation proximity assay
[6] = target: BoLA-1*02301 (D18.4) heavy chain folded with recombinant human β2m (cattle (Holstein) | human) (UniProt P61769); experiment: AlphaScreen or HTRF
[7] = target: BoLA-2*01201 (T2A) heavy chain folded with recombinant human β2m (cattle (Holstein) | human) (UniProt P61769); experiment: AlphaScreen or HTRF
[8] = target: BoLA-2*01201 (T2A) heavy chain folded with 125I-radiolabeled bovine met-β2m (cattle (Holstein) | bovine) (UniProt P01888); experiment: scintillation proximity assay

Q: How did the EC50 [1] turn out when Tp2 96–104 epitope […] (peptide) was run?
A: 0.144 µM

Q: And the EC50 [2]?
A: 0.767 µM

Q: And the half-life of the pBoLA-I complex [3]?
A: 4 h

Q: Which half-life of the pBoLA-I complex [4] does the source give for Tp8 379–387 epitope […] (peptide) here?
A: 14 h

Q: What about the half-life of the pBoLA-I complex [3] of the same substance?
A: 2 h

Q: Which half-life of the pBoLA-I complex [5] does the source give for Tp5 87–95 epitope … (peptide) here?
A: 18 h

Q: Which results are given for Ta9 epitope […] (peptide)?
A: Kd [2]: 0.309 µM; Kd [6]: 0.074 µM

Q: Tp9 199–228 epitope […] (peptide) was tested. Which half-life of the pBoLA-I complex [5] did it give?
A: 4 h

Q: Which EC50 [7] does the source give for Tp2 49–59 epitope […] (peptide) here?
A: 0.364 µM

Q: And the half-life of the pBoLA-I complex [8]?
A: 2 h

Q: With Tp2 98–106 epitope […] (peptide) as the substance, how does the half-life of the pBoLA-I complex [8] read?
A: 3 h

Q: Which half-life of the pBoLA-I complex [4] does the source give for Tp4 328–336 epitope … (peptide) here?
A: 23 h

Q: And the half-life of the pBoLA-I complex [3]?
A: 2 h
